Assays:
Experiment in all cases: competition ELISA: soluble cytokine against J695 (100 ng/ml) binding to immobilized human IL-12
[1] = molecular target: T1, human IL-1α (human, UniProt P01583 113-271)
T1 sequence (looked up): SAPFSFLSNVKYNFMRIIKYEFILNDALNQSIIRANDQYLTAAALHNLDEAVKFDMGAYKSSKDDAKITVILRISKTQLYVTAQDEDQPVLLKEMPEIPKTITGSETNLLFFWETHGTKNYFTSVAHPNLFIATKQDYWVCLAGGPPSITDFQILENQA

[2] = molecular target: human IL-1β (human, UniProt P01584 117-269)
[3] = molecular target: human IL-2 (human, UniProt P60568 21-153)
[4] = molecular target: T2, human IL-4 (human, UniProt P05112 25-153)
T2 sequence (looked up): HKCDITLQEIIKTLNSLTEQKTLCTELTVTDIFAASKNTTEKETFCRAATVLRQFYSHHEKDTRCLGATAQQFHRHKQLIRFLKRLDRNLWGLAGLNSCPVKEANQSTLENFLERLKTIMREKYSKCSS

[5] = molecular target: human IL-10 (human, UniProt P22301 19-178)
[6] = molecular target: human IL-17 (human, UniProt Q16552 20-155, limits assumed)
[7] = molecular target: T3, human IFN-gamma (human, UniProt P01579 24-166, limits assumed)
T3 sequence (looked up): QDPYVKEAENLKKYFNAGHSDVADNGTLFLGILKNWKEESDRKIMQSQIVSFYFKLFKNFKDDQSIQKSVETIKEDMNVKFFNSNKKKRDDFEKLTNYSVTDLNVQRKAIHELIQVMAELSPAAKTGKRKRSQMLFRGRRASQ

[8] = molecular target: human TGF-β1 (human, UniProt P01137 279-390)
[9] = molecular target: human IL-8 (human, UniProt P10145 28-99, limits assumed)
[10] = molecular target: human IGF-I (human, UniProt P05019 49-118)
[11] = molecular target: human IGF-II (human, UniProt P01344 25-91)
[12] = molecular target: human TNFα (human, UniProt P01375 77-233)
[13] = molecular target: T4, human lymphotoxin (human, UniProt P01374 35-205, limits assumed)
T4 sequence (looked up): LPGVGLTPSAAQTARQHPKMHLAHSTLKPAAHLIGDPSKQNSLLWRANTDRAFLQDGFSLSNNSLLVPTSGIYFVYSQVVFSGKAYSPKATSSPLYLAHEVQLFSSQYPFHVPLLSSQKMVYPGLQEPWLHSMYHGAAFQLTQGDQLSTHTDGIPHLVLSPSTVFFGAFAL

[14] = molecular target: human IL-6 (human, UniProt P05231 30-212)
[15] = molecular target: T5, human soluble IL-6 receptor (human, UniProt P08887 20-358)
T5 construct: Soluble form
T5 sequence (looked up): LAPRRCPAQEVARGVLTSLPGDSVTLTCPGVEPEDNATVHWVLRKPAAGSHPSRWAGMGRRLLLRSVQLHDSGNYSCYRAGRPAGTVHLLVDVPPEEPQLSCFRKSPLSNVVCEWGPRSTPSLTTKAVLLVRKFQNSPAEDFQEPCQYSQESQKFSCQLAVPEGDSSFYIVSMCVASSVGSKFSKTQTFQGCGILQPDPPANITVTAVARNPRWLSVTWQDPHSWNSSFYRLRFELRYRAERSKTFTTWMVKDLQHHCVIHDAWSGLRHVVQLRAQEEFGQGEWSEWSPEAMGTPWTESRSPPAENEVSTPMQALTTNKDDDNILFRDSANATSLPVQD

[16] = molecular target: T6, human IL-11 (human, UniProt P20809 22-199)
T6 sequence (looked up): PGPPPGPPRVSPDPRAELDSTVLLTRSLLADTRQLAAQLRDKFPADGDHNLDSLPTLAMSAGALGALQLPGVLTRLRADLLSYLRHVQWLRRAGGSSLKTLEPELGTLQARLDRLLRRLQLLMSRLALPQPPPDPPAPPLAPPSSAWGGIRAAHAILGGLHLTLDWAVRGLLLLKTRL

[17] = molecular target: T7, human M-CSF (human, UniProt P09603 33-190, limits assumed)
T7 sequence (looked up): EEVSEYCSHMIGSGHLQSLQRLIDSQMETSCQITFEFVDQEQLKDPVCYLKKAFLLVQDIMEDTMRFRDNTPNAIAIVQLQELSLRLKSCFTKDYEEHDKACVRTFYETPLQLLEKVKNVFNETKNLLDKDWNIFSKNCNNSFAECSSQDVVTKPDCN

[18] = molecular target: human LIF (human, UniProt P15018 23-202)

Measured: binding result

B1: J695 (human anti-human IL-12 antibody, IgG1) (antibody, V domains shown)
VH: QVQLVESGGGVVQPGRSLRLSCAASGFTFSSYGMHWVRQAPGKGLEWVAFIRYDGSNKYYADSVKGRFTISRDNSKNTLYLQMNSLRAEDTAVYYCKTHGSHDNWGQGTMVTVSS
VL: QSVLTQPPSVSGAPGQRVTISCSGSRSNIGSNTVKWYQQLPGTAPKLLIYYNDQRPSGVPDRFSGSKSGTSASLAITGLQAEDEADYYCQSYDRYTHPALLFGTGTKVTVLG
notes: Tested as whole IgG1 with lambda light chain (detected with anti-human lambda); also called IgG1 J695; Y61-L94Y-L50Y IgG
no binding (tested: 2nM): all assays above

From patent publication EP2168984B1 (Abbott GmbH & Co. KG, dated 2012)
